The results in this text go back to patent US20050196844A1.

The target in the assay is taxol stabilized microtubules prepared from phosphocellulose purified tubulin. The assay can be described thus: co-sedimentation with taxol stabilized microtubules through a sucrose cushion, Western blot of pellet and supernatant.

“E. coli synthesized tau (352 residue isoform) phosphorylated in vitro by fyn (from UniProt P10636 2-758)” displayed a binding efficiency of 50%.

Turning to “E. coli synthesized tau (352 residue isoform), non-phosphorylated (from UniProt P10636 2-758)”, the binding efficiency worked out at 50%.
